Paper doi:10.1101/2025.07.11.664054

Key:
Test in all cases: ITC
[1] = molecular target: purified OsHIPP21-HMA (rice)
[2] = molecular target: purified OsHPP09-HMA (rice)
[3] = molecular target: purified OsHPP10-HMA (rice)
[4] = molecular target: purified OsHPP11-HMA (rice)

“recombinant AVR-Pia (from UniProt B9WZW9 1-85) (natural protein)” gave a Kd [1] of 1290 nM, a Kd [2] of 115 nM and a Kd [3] of 5260 nM. For the same substance, the Kd [4] was 772 nM.
